Substrate: C=C(C)CCO[P@@](=O)(O)OP(=O)(O)O
Experiment: purified protein, by the assay type
Conditions: other: saturating excess of GPP (∼500-fold over enzyme, 10-fold over IPP), steady-state equation accounting for product inhibition, Kp 6 μM, 30 °C, pH 7.5

B1: human FPPS (Homo sapiens) (protein)
chain: MNGDQNSDVYAQEKQDFVQHFSQIVRVLTEDEMGHPEIGDAIARLKEVLEYNAIGGKYNRGLTVVVAFRELVEPRKQDADSLQRAWTVGWCVELLQAFFLVADDIMDSSLTRRGQICWYQKPGVGLDAINDANLLEACIYRLLKLYCREQPYYLNLIELFLQSSYQTEIGQTLDLLTAPQGNVDLVRFTEKRYKSIVKYKTAFYSFYLPIAAAMYMAGIDGEKEHANAKKILLEMGEFFQIQDDYLDLFGDPSVTGKIGTDIQDNKCSWLVVQCLQRATPEQYQILKENYGQKEAEKVARVKALYEELDLPAVFLQYEEDSYSHIMALIEQYAAPLPPAVFLGLARKIYKRRK
  Km: 1.1 µM

Reference: article PMC5253651, “Human farnesyl pyrophosphate synthase is allosterically inhibited by its own product” (Nature Communications, 2017)
